From patent US20240026024A1 (SHANGHAI HUAOTA BIOPHARMACEUTICAL, published 2024)
Residue numbers refer to the chain shown, from its start.

T1: human CD73 on the cell surface (human, UniProt P21589 27-549)
T1 sequence: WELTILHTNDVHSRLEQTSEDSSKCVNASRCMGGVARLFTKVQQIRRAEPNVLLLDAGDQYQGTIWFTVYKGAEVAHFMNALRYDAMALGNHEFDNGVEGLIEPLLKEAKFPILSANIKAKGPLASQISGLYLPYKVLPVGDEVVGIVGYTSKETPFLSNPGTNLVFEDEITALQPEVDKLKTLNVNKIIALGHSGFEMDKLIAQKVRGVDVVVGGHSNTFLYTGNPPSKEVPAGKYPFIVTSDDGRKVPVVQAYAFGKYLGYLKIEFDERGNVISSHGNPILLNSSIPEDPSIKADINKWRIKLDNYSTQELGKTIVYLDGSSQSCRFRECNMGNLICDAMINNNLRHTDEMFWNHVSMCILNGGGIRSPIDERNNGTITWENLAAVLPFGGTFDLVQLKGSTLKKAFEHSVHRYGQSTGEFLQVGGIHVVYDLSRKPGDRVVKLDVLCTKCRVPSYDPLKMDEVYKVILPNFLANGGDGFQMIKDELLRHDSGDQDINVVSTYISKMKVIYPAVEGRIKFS

T2: mouse CD73/NT5E (ACRO Biosystems, Cat No. CD3-M52H9) (mouse, UniProt Q61503 29-551)
T2 construct: Bought protein
T2 sequence (looked up): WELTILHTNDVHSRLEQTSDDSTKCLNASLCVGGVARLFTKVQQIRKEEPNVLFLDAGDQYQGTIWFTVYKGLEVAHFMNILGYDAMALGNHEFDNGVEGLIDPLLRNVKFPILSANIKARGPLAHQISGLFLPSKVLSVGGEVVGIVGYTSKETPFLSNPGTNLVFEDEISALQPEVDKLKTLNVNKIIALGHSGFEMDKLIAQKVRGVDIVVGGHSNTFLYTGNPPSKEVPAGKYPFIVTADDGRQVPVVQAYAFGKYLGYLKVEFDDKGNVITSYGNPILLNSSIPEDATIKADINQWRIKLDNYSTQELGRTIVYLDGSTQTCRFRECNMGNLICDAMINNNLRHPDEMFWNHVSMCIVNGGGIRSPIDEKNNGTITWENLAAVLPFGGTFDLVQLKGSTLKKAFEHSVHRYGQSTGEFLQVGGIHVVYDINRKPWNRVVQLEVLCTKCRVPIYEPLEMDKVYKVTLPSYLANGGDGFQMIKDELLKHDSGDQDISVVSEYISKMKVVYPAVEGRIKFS

T3: rat CD73 (Novoprotein, Cat No. CB16) (rat, UniProt P21588 29-551, limits assumed)
T3 construct: Bought protein
T3 sequence (looked up): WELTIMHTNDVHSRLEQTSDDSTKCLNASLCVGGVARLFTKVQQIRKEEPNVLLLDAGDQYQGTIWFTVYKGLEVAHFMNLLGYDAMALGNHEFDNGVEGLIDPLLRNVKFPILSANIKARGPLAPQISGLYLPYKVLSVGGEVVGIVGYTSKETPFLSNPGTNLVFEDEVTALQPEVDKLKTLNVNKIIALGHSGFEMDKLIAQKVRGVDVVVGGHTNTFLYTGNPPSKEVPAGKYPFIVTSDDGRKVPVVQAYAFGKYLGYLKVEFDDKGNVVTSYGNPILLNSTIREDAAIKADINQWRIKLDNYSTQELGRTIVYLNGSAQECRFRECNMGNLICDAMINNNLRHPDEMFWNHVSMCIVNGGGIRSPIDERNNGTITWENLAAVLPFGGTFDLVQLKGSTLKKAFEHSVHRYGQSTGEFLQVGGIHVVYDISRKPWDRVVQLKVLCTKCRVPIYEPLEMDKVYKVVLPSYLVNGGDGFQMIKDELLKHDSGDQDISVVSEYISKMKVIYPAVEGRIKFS

B1: 900581 (antibody, human IgG1, V domains shown)
VH: EVQLVESGGGLVKPGGSLKLSCAASGFTFSKYAMSWVRQSPEKRLEWVAEISSGGGYINYPDTVTGRFTISRDNAKNTLYLEMSSLRSGDTAMYYCARAIYYYGSSYNYYAMDYWGQGTSVTVSS
VL: DIVMTQSHKFMSTSVGDRVSITCKASQDVGTAEAWYQQKPGQSPKLLIYWASTRHTGVPDRFTGSGSGTDFTLTIGNVQSEDLADYFCQQYSSYPLTFGGGTKLEIK
B2: 900695 (antibody, V domains shown)
VH: QVQLVESGGGLVKPGGSLRLSCAASGFTFSKYAMSWVRQAPGKGLEWVAEISSGGGYINYADSVTGRFTISRDNAKNSLYLQMNSLRAEDTAVYYCARAIYYYGSSYNYYAMDYWGQGTTVTVSS
VL: DIQMTQSPSSLSASVGDRVTITCRASQDVGTAEAWYQQKPGKAPKLLIYWASTRHTGVPSRFSGSGSGTDFTLTISSLQPEDFATYYCQQYSSYPLTFGQGTKLEIK
notes: Constant regions are not restated
B3: 900697 (antibody, V domains shown)
VH: B2 VH
VL: B2 VL with R54L, H55Q, T56S
notes: as for B2
B4: 900698 (antibody, V domains shown)
VH: B2 VH with V37I, T65K
VL: B2 VL
notes: as for B2
B5: 900696 (antibody, V domains shown)
VH: B2 VH with V37I, T65K
VL: B2 VL with R54L, H55Q, T56S
notes: as for B2

The binders below were run against T1, human CD73 on the cell surface (assay: cell-based or functional assay).

Row | EC50(µg/mL), inhibition of enzyme activity of CD73 on CHOK1-huCD73-3F4 cells [µg/mL] | Binder
1 | 0.944 | B1

What follows are binders tested against T2, mouse CD73/NT5E (ACRO Biosystems, Cat …) (assay: SPR (Biacore T200), antibody captured on protein A chip).
Protocol: (§1) The temperatures of the sample chamber and flow path were set at 25° C. The protein A chips separately captured the antigen-binding proteins as ligands, which were immobilized at about 100 RU. […] Ten mM Glycine, pH 1.5, was regenerated for 60 s at a flow rate of […] for multiple cycle kinetic detection. The binding rate constant (ka), dissociation rate constant (kd) and dissociation equilibrium rate constant (KD) were fitted using the Fit local mode of a 1:1 binding model.

Row | binding result | Binder
2 | no binding (tested: up to 50 nM analyte) | B1
3 | no binding (tested: up to 50 nM analyte) | B2
4 | no binding (tested: up to 50 nM analyte) | B3
5 | no binding (tested: up to 50 nM analyte) | B4
6 | no binding (tested: up to 50 nM analyte) | B5

What follows are binders tested against T3, rat CD73 (Novoprotein, Cat No. CB16) in the same assay as above.
Protocol: as §1

Row | binding result | Binder
7 | no binding (tested: up to 50 nM analyte) | B1
8 | no binding (tested: up to 50 nM analyte) | B2
9 | no binding (tested: up to 50 nM analyte) | B3
10 | no binding (tested: up to 50 nM analyte) | B4
11 | no binding (tested: up to 50 nM analyte) | B5

Each binder was assayed against T1, human CD73 on the cell surface (assay: flow cytometry on CHOK1-huCD73-3F4 cells, PE anti-human Fc).
Protocol: All the antigen-binding proteins were diluted to 30 μg/ml with PBS solution containing 1% BSA (1% BSA/PBS), diluted at 3-fold into 11 gradients and then added to a 96-well U-shaped plate at 20 μL/well, and negative control (1% BSA/PBS was added only) was set up simultaneously. The suspension of human CD73-expressing cells (CHOK1-huCD73-3F4, Huabo Biopharm) in the logarithmic growth phase were collected and centrifuged at 1000 rpm for 5 min, and the culture medium was discarded; then the cells were resuspended with 1% BSA/PBS to a viable cell density of 1×10⁶/mL, and then added into the 96-well U-shaped plate already added with anti-CD73 antigen-binding protein at 20 μL (2×10⁴ cells)/well for reaction at room temperature for 30 min. […] After the reaction, the cells in the 96-well U-shaped plate were resuspended with 1% BSA/PBS and centrifuged at 300 g for 3 min and the supernatant was discarded; after washing in this manner 3 times, and the cells were finally resuspended with 1% BSA/PBS at 100 μL/well, and the fluorescence intensity of the PE channel was measured with a flow cytometer (BD, #Canto II).

Row | EC50 [µg/mL] | Binder
12 | 0.426 | B1
